Earlier results in patent publication US20060182683A1, “Methods for reduced renal uptake of protein conjugates” (Center for Molecular Medicine and Immunology, priority 1995, published 2006).

What was measured:
[1] = system: protein synthesis in a rabbit reticulocyte lysate; conditions: read-out: IC50, inhibition of protein synthesis; cited from earlier work
Xenopus oocytes = conditions: microinjected into Xenopus oocytes; read-out: IC50, inhibition of protein synthesis; cited from earlier work
[2] = molecular target: T1, mammalian placental ribonuclease inhibitor (Homo sapiens, UniProt P13489); conditions: cited from earlier work
T1 sequence (P13489 1-461): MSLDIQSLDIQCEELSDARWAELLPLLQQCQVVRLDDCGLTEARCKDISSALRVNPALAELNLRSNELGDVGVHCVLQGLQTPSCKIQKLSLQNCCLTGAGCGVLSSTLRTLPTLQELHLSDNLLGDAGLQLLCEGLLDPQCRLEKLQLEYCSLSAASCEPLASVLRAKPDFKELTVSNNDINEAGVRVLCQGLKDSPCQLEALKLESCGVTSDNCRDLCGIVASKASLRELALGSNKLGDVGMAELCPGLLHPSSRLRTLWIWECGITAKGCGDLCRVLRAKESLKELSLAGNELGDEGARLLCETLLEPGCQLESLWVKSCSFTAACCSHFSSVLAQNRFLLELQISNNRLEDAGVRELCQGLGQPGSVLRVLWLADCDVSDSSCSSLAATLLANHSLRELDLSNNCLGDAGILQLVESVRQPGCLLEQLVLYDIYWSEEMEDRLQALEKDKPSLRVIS

rats = conditions: dose range 0.01-0.02 mg/kg; cited from earlier work
dogs = conditions: 0.005-0.15 mg/kg; cited from earlier work
[3] = system: M109 Madison lung carcinoma; conditions: cited from earlier work
[4] = system: patients suffering from a variety of relapsing and resistant tumors; conditions: intravenous; mainly due to renal toxicity; cited from earlier work

B1: ranpirnase (protein, UniProt P22069 1-104, looked up)
Protein P-30: QDWLTFQKKHITNTRDVDCDNIMSTNLFHCKDKNTFIYSRPEPVKAICKGIIASKNVLTTSEFYLSDCNVTSRPCKYKLKKSTNKFCVTCENQAPVHFVGVGSC
notes: non-mammalian ribonuclease (RNAse), molecular weight 12,000, purified from Rana pipiens oocytes and early embryos
IC50 [1]: 0.01 nM
IC50 (Xenopus oocytes): 0.1 nM
inhibition by mammalian placental ribonuclease inhibitor [2]: not inhibited
toxicity (rats): predictable, dose-dependent and reversible toxicity
toxicity (dogs): predictable, dose-dependent and reversible toxicity
survival ([3]; daily and weekly schedules, intraperitoneal): significantly prolonged survival
animals surviving long-term, apparently cured ([3]; weekly schedule): six of eighteen
maximum tolerated dose [4]: 960 μg/m^2
